The source of these data is patent US20080146500A1, “Selective Vpac2 Receptor Peptide Agonists” (priority 2004, published 2008).

Ends that are not written are not given here.

Data set [1] can be described thus: Pharmacokinetic profiles of PEGylated peptides, plasma peptide by RIA. Type of data set: in vivo, Fisher 344 rats. As to conditions: Fisher 344 rats, 100 μg compound/kg, plasma RIA, mean N = 3. Here is the method: Pharmacokinetic profiles of PEGylated peptides. Healthy Fisher 344 rats (3 animals per group) are injected with 100 μg compound/kg (compound amount based on peptide content and dissolved in PBS buffer). […] PK parameters are then calculated using a model-independent method (WinNonlin Pro, Pharsight Corp., Mountain View, Calif., USA).

The target in another data set is T1, human VPAC1 (Homo sapiens, UniProt P32241).
T1 construct: expressed in transfected cells
T1 sequence (P32241 31-457): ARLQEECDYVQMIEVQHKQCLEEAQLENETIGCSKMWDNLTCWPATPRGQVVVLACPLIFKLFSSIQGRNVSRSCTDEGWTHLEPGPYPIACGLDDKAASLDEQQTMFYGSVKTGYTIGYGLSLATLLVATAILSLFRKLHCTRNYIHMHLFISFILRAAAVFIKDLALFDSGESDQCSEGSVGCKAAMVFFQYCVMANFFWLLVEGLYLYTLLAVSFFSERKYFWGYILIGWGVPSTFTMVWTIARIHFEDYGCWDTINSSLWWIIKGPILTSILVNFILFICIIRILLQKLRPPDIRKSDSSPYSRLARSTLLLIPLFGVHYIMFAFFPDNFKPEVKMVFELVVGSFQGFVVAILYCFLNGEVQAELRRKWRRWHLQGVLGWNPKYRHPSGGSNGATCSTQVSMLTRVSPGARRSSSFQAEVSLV
Description: Filter binding assay, membranes from cells transiently transfected with human VPAC1, 125I-labeled VIP tracer. The conditions noted are these: read-out: Human receptor binding (IC50; nM) VPAC1. Here is the method: (§1) For this assay, the solutions and equipment include:
(§2) Presoak solution: 0.5% Polyethyleneamine in Aqua dest.
(§3) Buffer for flushing filter plates: 25 mM HEPES pH 7.4
(§4) Blocking buffer: 25 mM HEPES pH 7.4; 0.2% protease free BSA
(§5) Assay buffer: 25 mM HEPES pH 7.4; 0.5% protease free BSA
(§6) Dilution and assay plate: PS-Microplate, U form
(§7) Filtration Plate Multiscreen FB Opaque Plate; […] Type B Glasfiber filter
(§8) In order to prepare the filter plates, the presoak solution is aspirated by vacuum filtration. The plates are flushed twice with 200 μL flush buffer. 200 μL blocking buffer is added to the filter plate. The filter plate is then incubated with 200 μL presoak solution for 1 hour at room temperature.
(§9) The assay plate is filled with […] (2.5 μg) suspended in assay buffer, 25 μL compound (agonist) in assay buffer, and 25 μL tracer (about 40000 cpm) in assay buffer. The filled plate is incubated for 1 hour with shaking.
(§10) The transfer from assay plate to filter plate is conducted. The blocking buffer is aspirated by vacuum filtration and washed two times with flush buffer. 90 μL is transferred from the assay plate to the filter plate. The 90 μL transferred from assay plate is aspirated and washed three times with 200 μL flush buffer. The plastic support is removed. It is dried for 1 hour at 60° C. 30 μL Microscint is added. The count is performed.
(§11) Values reported are single results or the mean of two or more independent runs.

Another data set concerns the target T2, human VPAC2 (Homo sapiens, UniProt P41587).
T2 construct: expressed in transfected cells
T2 sequence (P41587 24-438): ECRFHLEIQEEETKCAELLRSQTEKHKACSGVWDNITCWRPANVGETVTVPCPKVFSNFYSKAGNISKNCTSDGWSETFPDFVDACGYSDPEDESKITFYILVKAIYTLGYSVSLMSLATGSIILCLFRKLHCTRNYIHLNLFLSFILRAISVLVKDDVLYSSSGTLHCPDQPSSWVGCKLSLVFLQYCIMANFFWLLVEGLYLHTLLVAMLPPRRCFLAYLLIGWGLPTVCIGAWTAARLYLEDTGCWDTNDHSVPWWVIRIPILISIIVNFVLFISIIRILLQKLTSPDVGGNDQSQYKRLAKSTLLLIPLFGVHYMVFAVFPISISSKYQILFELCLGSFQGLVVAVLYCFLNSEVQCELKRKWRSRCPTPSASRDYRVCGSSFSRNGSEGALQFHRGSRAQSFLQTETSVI
Description: Alpha screen in vitro potency: human VPAC2-R mediated cAMP generation. Type of data set: cell-based. As to conditions: single results or mean of two or more independent runs.

The next data set has as its target T3, rat VPAC1 receptor (Rattus norvegicus, UniProt P30083).
T3 construct: expressed in transfected cells; host or cells: CHO-PO cells, transient
T3 sequence (P30083 31-459): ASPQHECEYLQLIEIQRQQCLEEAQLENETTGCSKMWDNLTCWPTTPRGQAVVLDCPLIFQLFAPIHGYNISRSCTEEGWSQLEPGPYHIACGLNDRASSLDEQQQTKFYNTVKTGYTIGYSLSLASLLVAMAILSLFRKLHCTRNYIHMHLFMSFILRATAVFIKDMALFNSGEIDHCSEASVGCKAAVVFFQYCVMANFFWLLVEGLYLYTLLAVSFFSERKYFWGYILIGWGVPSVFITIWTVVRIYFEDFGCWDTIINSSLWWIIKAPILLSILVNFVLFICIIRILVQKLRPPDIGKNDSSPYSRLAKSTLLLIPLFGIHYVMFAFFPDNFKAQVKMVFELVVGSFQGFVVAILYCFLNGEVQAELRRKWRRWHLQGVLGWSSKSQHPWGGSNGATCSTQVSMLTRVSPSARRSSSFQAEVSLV
The experiment in a line: Rat VPAC1 in vitro potency (cAMP generation, DiscoveRx) in transiently transfected CHO-PO cells. Type of data set: cell-based. The conditions noted are these: CHO-PO cells transiently transfected with rat VPAC1; read-out: rVPAC1 in vitro potency (cAMP generation) EC50. Here is the method:
Rat receptor selectivity is estimated by comparing functional potency (cAMP generation) in CHO-PO cells transiently expressing rat VPAC1 or rat VPAC2 receptors. CHO-PO cells transiently expressing rat VPAC1 or VPAC2, are seeded with 10,000 cells/well three days before the assay. The cells are kept in 200 μL culture medium. […] The stimuli are present for 30 minutes. The assay buffer is then gently removed.

The target in another data set is T4, human PAC1 (Homo sapiens, UniProt P41586).
T4 construct: expressed in transfected cells
T4 sequence (P41586 21-468): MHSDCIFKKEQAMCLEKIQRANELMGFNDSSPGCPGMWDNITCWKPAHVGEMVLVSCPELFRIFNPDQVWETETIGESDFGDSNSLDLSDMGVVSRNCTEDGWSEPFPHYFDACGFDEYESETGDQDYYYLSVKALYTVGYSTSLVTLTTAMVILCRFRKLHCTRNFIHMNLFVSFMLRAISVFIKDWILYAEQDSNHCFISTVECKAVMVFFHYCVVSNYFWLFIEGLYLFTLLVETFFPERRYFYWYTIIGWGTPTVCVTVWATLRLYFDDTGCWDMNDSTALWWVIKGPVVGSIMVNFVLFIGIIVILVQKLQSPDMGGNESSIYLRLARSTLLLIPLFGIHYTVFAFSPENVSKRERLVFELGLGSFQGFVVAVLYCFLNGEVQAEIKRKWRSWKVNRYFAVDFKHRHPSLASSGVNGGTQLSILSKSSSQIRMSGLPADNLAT
The experiment in a line: Filter binding assay, membranes from cells transiently transfected with human PAC1, 125I-labeled PACAP-27 tracer. The conditions noted are these: read-out: Human receptor binding (IC50; nM) PAC1. Here is the method: as §1, §2, §3, §4, §5, §6, §7, §8, §9, §10, §11

As a reminder, the Cmax is the highest concentration seen after dosing. For orientation: Tmax means the time from dosing to the highest level. By IC50 is commonly meant the concentration that gives 50% inhibition. As to “C6-HSDAVFTEQY(OMe)TOrnLRAibQVAK(CO(CH2)2SPEG40K)AibOrnYLQSIOrnOrnGGPSSGAPPPS-NH2 (HSDAVFTEQYTXLRXQVAXXXYLQSIXXGGPSSGAPPPS; non-natural residues) [Agonist P432]”, in data set [1], the AUC0-last turned out to be 21471 ng·h/mL, the Cl/F was 0.083 mL/min/kg, the Cmax is given as 392 ng/mL and the time to peak (Tmax) was determined as 16 h. The same substance had a T½ in data set [1] of 35 h. Also, the 50% inhibitory concentration (IC50) with human VPAC1 was more than 3000 nM. This substance also had an EC50 with human VPAC2 of 20.1 nM. In the data set with rat VPAC1 receptor, the EC50 was more than 100 nM. For the same substance, the IC50 in the data set with human PAC1 is more than 25000 nM.
In the case of “P137: PEGylated material obtained from P120 and methoxy-PEG2-MAL-40K (HSDAVFTDNYTRLRKQVAAKKYLQSIKNKRYGGPSSGAPPPC; also: PEGylated with methoxy-PEG2-MAL-40K, site not given here) [Agonist P137]”, the IC50 was 853 nM in the data set with human VPAC1 and more than 25000 nM with human PAC1. In addition, the EC50 with human VPAC2 stood at 8.31 nM; with rat VPAC1 receptor, 29.7 nM.
As for “C6-HDAVFTEQY(OMe)TOrnLRAibQVAAAibOrnYLQSIOrnOrnGGPSSGAPPPC(PEG60K)-NH2 [Agonist P404]”, in data set [1], the AUC0-last was determined as 6070 ng·h/mL, the Cl/F is 0.283 mL/min/kg, the Cmax is given as 133 ng/mL and the Tmax came out at 20 h. The same substance displayed a T½ in data set [1] of 23 h. Besides, the IC50 with human VPAC1 was more than 3000 nM. This substance also displayed an EC50 with human VPAC2 of 17 nM. Further, the EC50 with rat VPAC1 receptor was 23.4 nM. Besides, in the data set with human PAC1, the IC50 was more than 25000 nM.
“C6-HSDAVFTDNYTOrnLRAibQVAAAibKYLQC(PEG40K)IOrnNOrnGGPSSGAPPPS (HSDAVFTDNYTXLRXQVAAXKYLQCIXNXGGPSSGAPPPS; non-natural residues) [Agonist P373]”: in data set [1], the AUC0-last stood at 10803 ng·h/mL, the Cl/F worked out at 0.167 mL/min/kg, the Cmax stood at 240 ng/mL and the Tmax is listed as 13 h. This substance returned a T½ in data set [1] of 31 h. In addition, the IC50 in the data set with human VPAC1 is more than 25000 nM. Further, the EC50 with human VPAC2 is 33.9 nM. Also, the EC50 with rat VPAC1 receptor came to 350 nM. For the same substance, the half-maximal inhibitory concentration (IC50) with human PAC1 was more than 25000 nM.
